# Reference: patent US20260231954A1, “PESTICIDAL ENZYMES FOR USE ON NEMATODES, INSECTS, AND MOLLUSKS” (priority 2023, published 2026)
# Columns and labels:
# Assay type in all cases: in vivo
# [1] = test system: corn; experiment: Field trial: EstA Esterase corn seed treatment, yield; settings: 2.5 fl oz/unit on hybrid corn seed; 16 sites
# Excerpt: 2.5 fl oz/unit of EstA Esterase from recombinant Bacillus subtilis fermentation (SEQ ID NO: 254) was coated onto hybrid corn seeds treated with Fludioxinil, Azoxystrobin, mefonoxam, and thiabendaz fungicides, cyantraniliproleinsecticide, peridium 1006 polymer, and (colorant). A control treatment without esterase enzyme was also created. The seed treated with esterase and control seed was planted in replicated trials distributed across 16 replicated plots with 4 replicates of 80 ft2 each at each site.
# [2] = test system: winter wheat; experiment: Field trial: esterase on MAP fertilizer, winter wheat yield and vigor; settings: 1 fl oz/A EstA fermentation on MAP (15 lb/A Phosphate); MAP base control 4124.5
# Procedure: (§1) Esterase A (EstA) from Bacillus subtilis (SEQ ID NO:254) was produced via fermentation of a recombinantly produced enzyme in Bacillus subtilis. 1 fl oz of fermentation product was applied onto 15 lb P/A (phosphate equivalent per acre) monoammonium phosphate (MAP) fertilizer in a concrete mixer and allowed to mix for 1 minute. A MAP control treatment without fermentation media was also created. MAP, alone or with fermentation media was distributed across 4 small replicated plots prior to planting of winter wheat with 5 replicates of 300 ft^2 each at each site.
# [3] = test system: corn; experiment: Field trial: esterase on DAP fertilizer, corn yield; settings: 1, 2, or 3 fl oz fermentation product on 67.5 lb P/A DAP
# Procedure: (§2) Esterase A (EstA) from Bacillus subtilis (SEQ ID NO:254) was produced via fermentation of a recombinantly produced enzyme in Bacillus subtilis. 1, 2, or 3 fl oz of fermentation product was applied onto 67.5 lb P/A (phosphate equivalent per acre) diammonium phosphate (DAP) fertilizer in a concrete mixer, and allowed to mix for 1 minute. A DAP control treatment without fermentation media was also created. DAP, alone or with fermentation media was distributed across 4 small replicated plots each prior to planting of corn with 4 replicates of 400 ft^2 each at each site.
# [4] = test system: corn; experiment: Field trial: esterase on MAP/DAP fertilizer, corn yield; settings: 2 fl oz/A EstA fermentation on MAP/DAP (72 lb/A Phosphate); base control 12798
# Procedure: Esterase A (EstA) from Bacillus subtilis (SEQ ID NO:254) was produced via fermentation of a recombinantly produced enzyme in Bacillus subtilis. 2 fl oz of fermentation product was applied onto either 72 lb P/A (phosphate equivalent per acre) monoammonium phosphate (MAP) fertilizer or diammonium phosphate (DAP) fertilizer in a concrete mixer, and allowed to mix for 1 minute. A MAP/DAP control treatment without fermentation media was also created. MAP or DAP, alone or with fermentation media was distributed across 4 small replicated plots each prior to planting of corn with 5 replicates of 400 ft2 each at each site (4 site with MAP, 4 sites with DAP, combined in data in Table 52 below).
# [5] = test system: winter wheat; experiment: Field trial: esterase on urea fertilizer, winter wheat yield; settings: 1 fl oz or 2 fl oz fermentation product on 15 lb N/A urea
# Procedure: as §1, with “oz or 2 fl oz” for “oz”, “N/A (nitrogen” for “P/A (phosphate”, “urea” for “monoammonium phosphate (MAP)”, “urea” for “MAP”, “urea,” for “MAP,”
# [6] = test system: corn; experiment: Field trial: esterase on urea with or without NBPT nitrogen stabilizer, corn yield; settings: 1, 2, or 3 fl oz fermentation product on 135 lb N/A urea, with or without 64 fl oz/ton NBPT
# Procedure: as §2, with “135” for “67.5”, “N/A (nitrogen” for “P/A (phosphate”, “urea” for “diammonium phosphate (DAP)”, “urea” for “DAP”, “An addition treatment that contained 64 fl oz/ton N-Butyl-thiophosphoric triamide (NBPT) nitrogen stabilizer or 64 fl oz/ton NBPT nitrogen stabilizer with 3 fl oz/A EstA fermentation product was also included in the trial. Urea,” for “DAP,”, “ft2” for “ft^2”
molecule,measurement,setting,value
"EstA fermentation: Esterase A (EstA) from Bacillus subtilis (SEQ ID NO:254), fermentation product of recombinant Bacillus subtilis (protein, listed as Bacillus subtilis) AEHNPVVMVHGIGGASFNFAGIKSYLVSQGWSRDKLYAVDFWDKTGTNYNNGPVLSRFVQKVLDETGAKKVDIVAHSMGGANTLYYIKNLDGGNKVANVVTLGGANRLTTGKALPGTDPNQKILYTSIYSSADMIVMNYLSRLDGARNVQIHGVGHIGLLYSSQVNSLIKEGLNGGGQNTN",yield vs base seed treatment package (in words),[1],increased the yield
same,Yield (Kg/ha),[2],4224.7 Kg/ha
same,yield vs DAP control (in words),[3],increased the yield
same,Yield (Kg/ha),[4],13077 Kg/ha
same,yield vs urea control (in words),[5],increased the yield
same,yield vs urea control and NBPT containing treatments (in words),[6],increased the yield
